Measurements: patent US20240139251A1 (CYTOARM, published 2024)

Tests used:
[1] = target: T1, prostate specific membrane antigen (PSMA) on LNCaP cells (human, UniProt Q04609 1-750); assay: cell-based or functional assay
[2] = target: T1, prostate specific membrane antigen …; assay: cell-based or functional assay; remark: listed apart in the source

| Binder | Cytotoxic effect of BsAb T cells on LNCaP cells, Effect cell/Target cell 3:1 [1] [%] | Cytotoxic effect of BsAb T cells on LNCaP cells, Effect cell/Target cell 5:1 [1] [%] | Cytotoxic effect of BsAb T cells on LNCaP cells, Effect cell/Target cell 10:1 [1] [%] | Cell killing of LNCaP cells by T cells of Example 2 further modified with BsAb, E/T ratio 10:1 [2] [%] | Cell killing of LNCaP cells by murine OKT3 T cells modified with BsAb, E/T ratio 10:1 [2] [%] | Cytotoxicity on LNCaP cells of T cells differentiated by BsAb, E/T ratio 5:1 [2] [%] | Cytotoxicity on LNCaP cells of T cells differentiated by BsAb, E/T ratio 10:1 [2] [%] | Cytotoxicity on LNCaP cells of T cells differentiated by and further modified with BsAb, E/T ratio 5:1 [2] [%] | Cytotoxicity on LNCaP cells of T cells differentiated by and further modified with BsAb, E/T ratio 10:1 [2] [%] |
| --- | --- | --- | --- | --- | --- | --- | --- | --- | --- |
| anti-PSMA Fab/anti-CD3 scFv BsAb (bispecific antibody, not shown: small tags and cut ends) light: DIVMTQSPSSLSASVGDRVTITCKASQDVGTAVDWYQQKPGKAPKLLIYWASTRHTGVPDRFTGSGSGTDFTLTISSLQPEDFADYFCQQYNSYPLTFGGGTKLEIKRTVAAPSVFIFPPSDEQLKSGTASVVCLLNNFYPREAKVQWKVDNALQSGNSQESVTEQDSKDSTYSLSSTLTLSKADYEKHKLYACEVTHQGLSSPVTKSFNRGEC heavy (part 1 of 2): EVQLVQSGAEVKKPGASVKISCKTSGYTFTEYTIHWVKQASGKGLEWIGNINPNNGGTTYNQKFEDRATLTVDKSTSTAYMELSSLRSEDTAVYYCAAGWNFDYWGQGTTVTVSSASTKGPSVFPLAPSSKSTSGGTAALGCLVKDYFPEPVTVSWNSGALTSGVHTFPAVLQSSGLYSLSSVVTVPSSSLGTQTYICNVNHKPSNTKVDKRVEPKSCDK heavy (part 2 of 2): not shown | 64.8 | 87 | 97.3 | > 90 | ~100 | – | – | – | – |
| anti-CD3 Fab/anti-PSMA scFv BsAb (bispecific antibody, not shown: small tags and cut ends) light: not shown heavy (part 1 of 2): not shown heavy (part 2 of 2): GGGSGGGEVQLVQSGAEVKKPGASVKISCKTSGYTFTEYTIHWVKQASGKGLEWIGNINPNNGGTTYNQKFEDRATLTVDKSTSTAYMELSSLRSEDTAVYYCAAGWNFDYWGQGTTVTVSSAGGGGSGGGGSGGGGSDIVMTQSPSSLSASVGDRVTITCKASQDVGTAVDWYQQKPGKAPKLLIYWASTRHTGVPDRFTGSGSGTDFTLTISSLQPEDFADYFCQQYNSYPLTFGGGTKLEIKRHHHHHH | 30.3 | 62.6 | 82.2 | > 90 | – | ~51.3 | ~61 | ~78.2 | ~81.8 |
| anti-PSMA scFv/anti-CD3 scFv BsAb (bispecific antibody, not shown: small tags and cut ends) chain (part 1 of 2): DIVMTQSPSSLSASVGDRVTITCKASQDVGTAVDWYQQKPGKAPKLLIYWASTRHTGVPDRFTGSGSGTDFTLTISSLQPEDFADYFCQQYNSYPLTFGGGTKLEIKRGGGGSGGGGSGGGGSEVQLVQSGAEVKKPGASVKISCKTSGYTFTEYTIHWVKQASGKGLEWIGNINPNNGGTTYNQKFEDRATLTVDKSTSTAYMELSSLRSEDTAVYYCAAGWNFDYWGQGTTVTVSSA chain (part 2 of 2): not shown | 53.8 | 83.4 | 97.6 | > 90 | – | – | – | – | – |
| anti-CD3 knob/anti-PSMA hole BsAb (bispecific antibody) light 1: not shown heavy 1: not shown light 2: RIVMTQSPSSLSASVGDRVTITCKASQDVGTAVDWYQDKPGKAPKLLIYWASTRHTGVPDRFTGSGSGTDFTLTISSLQPEDFADYFCQQYNSYPLTFGGGTKLEIKRTVAAPSVFIFPPSDEQLKSGTASVVCYLNNFYPREAKVQWKVDNALQSGNSQESVTEQDSKDSTYSLWSTLTLSKADYEKHKLYACEVTHQGLSSPVTKSFNRGECGGGSYPYDVPDYA heavy 2: not shown | 43.1 | 58.6 | 70.4 | > 90 | – | – | – | – | – |
